Reference: patent US20020160955A1 (published 2002)

Tests used:
Experiment in all cases: competitive phage ELISA
[1] = target: T1, IGF-I E46A (G1S-A70V background) displayed on phage (human; bacteriophage M13)
T1 construct: monovalent M13 phage display
T1 chain: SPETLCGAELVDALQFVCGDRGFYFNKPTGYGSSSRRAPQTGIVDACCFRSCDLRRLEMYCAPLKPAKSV
Method: (§1) Phage particles were harvested and resuspended in PBS buffer as described in Lowman, H. B., “Phage Display of Peptide Libraries on Protein Scaffolds,” in Cabilly, S. (ed.), Combinatorial Peptide Library Protocols (Humana Press Inc.: Totowa, N.J., 1998), pp. 249-264. Then phage concentrations were normalized to yield a maximal ELISA signal of 0.2-0.4 for each mutant (Lowman, in Cabilly, S. (ed.), supra). Threefold serial dilutions of soluble competitor were prepared on non-absorbent microtiter plates (Nunc, F, 96 wells) with binding buffer (0.5% TWEEN™ 20/PBS) containing phage at the previously-determined concentrations. […] After blocking, the plates containing immobilized target were washed with 0.05% TWEEN™/PBS buffer and subsequently incubated with 80 μl/well of the premixed phage-competitor solutions for 1 hour at room temperature. After washing, bound phage was detected with 80 μl/well of a solution containing a primary rabbit anti-phage polyclonal antibody and a secondary goat anti-rabbit monoclonal antibody-horseradish peroxidase conjugate in 0.5% TWEEN 20™/PBS. o-Phenylenediamine (Sigma) and tetramethylbenzidine (Kirkegaard and Perry) were used as chromogenic substrates, resulting in product detection at 492 and 450 nm, respectively. IC₅₀ values were determined by fitting the binding data to a generic saturation curve (Lowman, in Cabilly, S. (ed.), supra). […] Numbers in Table I represent mean +standard deviation of individually assessed IC₅₀ values.
(§2) At least two different clones of every mutant were tested.

[2] = target: T2, IGF-I G22A (G1S-A70V background) displayed on phage (human; bacteriophage M13, not fully specified; Displayed monovalently on M13 phage as a C-terminal fusion to the gene III fragment, which is left out of the letters.)
T2 construct: monovalent M13 phage display; not shown: Display carrier: M13 gene III fragment (residues 249-406) and its junction
T2 chain: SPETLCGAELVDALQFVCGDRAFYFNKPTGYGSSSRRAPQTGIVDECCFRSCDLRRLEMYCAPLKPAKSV
Method: as §1, §2

[3] = target: T3, IGF-I Q15A (G1S-A70V background) displayed on phage (human; bacteriophage M13)
T3 construct: monovalent M13 phage display
T3 chain: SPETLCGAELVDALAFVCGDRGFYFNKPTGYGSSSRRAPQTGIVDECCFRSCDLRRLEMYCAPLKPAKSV
Method: as §1, §2

[4] = target: T4, IGF-I R21A (G1S-A70V background) displayed on phage (human; bacteriophage M13, not fully specified; Displayed monovalently on M13 phage as a C-terminal fusion to the gene III fragment, which is left out of the letters.)
T4 construct: monovalent M13 phage display; not shown: Display carrier: M13 gene III fragment (residues 249-406) and its junction
T4 chain: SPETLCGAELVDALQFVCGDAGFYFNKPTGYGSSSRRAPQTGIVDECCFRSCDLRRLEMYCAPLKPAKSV
Method: as §1, §2

[5] = target: T5, IGF-I S1A (G1S-A70V background) displayed on phage (human; bacteriophage M13)
T5 construct: range 249-406; monovalent M13 phage display
Method: as §1, §2

[6] = target: T6, IGF-I S51A (G1S-A70V background) displayed on phage (human; bacteriophage M13)
T6 construct: monovalent M13 phage display
T6 chain: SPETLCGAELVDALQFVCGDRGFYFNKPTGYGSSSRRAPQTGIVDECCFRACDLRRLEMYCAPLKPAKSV
Method: as §1, §2

[7] = target: T7, IGF-I N26A (G1S-A70V background) displayed on phage (human; bacteriophage M13, not fully specified; Displayed monovalently on M13 phage as a C-terminal fusion to the gene III fragment, which is left out of the letters.)
T7 construct: monovalent M13 phage display; not shown: Display carrier: M13 gene III fragment (residues 249-406) and its junction
T7 chain: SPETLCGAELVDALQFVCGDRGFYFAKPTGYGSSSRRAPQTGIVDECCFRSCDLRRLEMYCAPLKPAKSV
Method: as §1, §2

[8] = target: T8, IGF-I S1G (G1S-A70V background) displayed on phage (human; bacteriophage M13, UniProt P69168 267-424)
T8 construct: range 249-406; monovalent M13 phage display
Method: as §1, §2

[9] = target: T9, IGF-I Q40A (G1S-A70V background) displayed on phage (human; bacteriophage M13)
T9 construct: monovalent M13 phage display
T9 chain: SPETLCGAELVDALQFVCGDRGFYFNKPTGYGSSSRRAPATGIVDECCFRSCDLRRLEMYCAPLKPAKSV
Method: as §1, §2

[10] = target: T10, IGF-I S33A (G1S-A70V background) displayed on phage (human; bacteriophage M13)
T10 construct: monovalent M13 phage display; not shown: M13 gene III fragment (residues 249-406, display partner) and the junction to it
T10 chain: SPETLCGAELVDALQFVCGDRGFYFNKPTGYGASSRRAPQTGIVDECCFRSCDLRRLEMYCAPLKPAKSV
Method: as §1, §2

[11] = target: T11, IGF-I T41A (G1S-A70V background) displayed on phage (human; bacteriophage M13)
T11 construct: monovalent M13 phage display
T11 chain: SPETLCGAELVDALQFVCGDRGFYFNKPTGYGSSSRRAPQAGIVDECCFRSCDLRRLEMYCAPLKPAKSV
Method: as §1, §2

[12] = target: T12, IGF-I Y24A (G1S-A70V background) displayed on phage (human; bacteriophage M13, not fully specified; Displayed monovalently on M13 phage as a C-terminal fusion to the gene III fragment, which is left out of the letters.)
T12 construct: monovalent M13 phage display; not shown: Display carrier: M13 gene III fragment (residues 249-406) and its junction
T12 chain: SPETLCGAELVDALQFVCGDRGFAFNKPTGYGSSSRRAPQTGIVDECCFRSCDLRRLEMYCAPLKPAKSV
Method: as §1, §2

[13] = target: T13, IGF-I L14A (G1S-A70V background) displayed on phage (human; bacteriophage M13)
T13 construct: monovalent M13 phage display
T13 chain: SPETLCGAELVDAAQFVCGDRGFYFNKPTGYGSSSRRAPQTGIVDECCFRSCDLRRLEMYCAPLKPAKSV
Method: as §1, §2

[14] = target: T14, IGF-I S34A (G1S-A70V background) displayed on phage (human; bacteriophage M13)
T14 construct: monovalent M13 phage display; not shown: M13 gene III fragment (residues 249-406, display partner) and the junction to it
T14 chain: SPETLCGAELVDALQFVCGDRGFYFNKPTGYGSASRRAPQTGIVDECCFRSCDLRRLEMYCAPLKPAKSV
Method: as §1, §2

B1: human IGFBP-1 (other, UniProt P08833 26-259, looked up)
chain: APWQCAPCSAEKLALCPPVSASCSEVTRSAGCGCCPMCALPLGAACGVATARCARGLSCRALPGEQQPLHALTRGQGACVQESDASAPHAAEAGSPESPESTEITEEELLDNFHLMAPSEEDHSILWDAISTYDGSKALHVTNIKKWKEPCRIELYRVVESLAKAQETSGEEISKFYLPNCNKNGFYHSRQCETSMDGEAGLCWCVYPWNGKRIPGSPEIRGDPNCQIYFNVQN
notes: secreted recombinant protein purified from conditioned medium
B1 showed an IC50 [1] of 7.9 nM, an IC50 [2] of 15.9 nM and an IC50 [3] of 13.9 nM. For the same binder, the IC50 [4] was 7.1 nM, the IC50 [5] was 5.2 nM and the IC50 [6] was 13.4 nM. For the same binder, the IC50 [7] was 9.1 nM, the IC50 [8] was 11.2 nM and the IC50 [9] was 10.2 nM. It also gave an IC50 [10] of 9.1 nM, an IC50 [11] of 13.7 nM and an IC50 [12] of 13.3 nM. It also gave an IC50 [13] of 36.7 nM and an IC50 [14] of 9.5 nM.
